# Bridges are numbered along the chain shown (N, C = ends). [ ]: non-standard residue; d: D form. dPro(4S-NH2) = N[C@@H]1CN[C@@H](C(=O)O)C1; dTic = O=C(O)[C@H]1Cc2ccccc2CN1
# T1: Formyl-Peptide Receptor 1 (UniProt P21462 1-350, limits assumed)
# T1 sequence (looked up): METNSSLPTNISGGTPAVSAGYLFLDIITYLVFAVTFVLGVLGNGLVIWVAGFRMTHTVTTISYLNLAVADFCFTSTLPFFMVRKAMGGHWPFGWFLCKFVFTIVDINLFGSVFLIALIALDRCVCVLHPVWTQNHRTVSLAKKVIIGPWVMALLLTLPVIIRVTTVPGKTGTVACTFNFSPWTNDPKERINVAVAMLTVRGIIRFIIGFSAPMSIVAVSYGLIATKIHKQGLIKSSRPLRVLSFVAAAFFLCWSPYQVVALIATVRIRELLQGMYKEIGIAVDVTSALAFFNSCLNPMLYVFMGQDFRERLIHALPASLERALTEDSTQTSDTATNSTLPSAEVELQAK
# Target: T1, Formyl-Peptide Receptor 1
# Assay: cell-based or functional assay
row,Binder,β-Arrestin IC50 [nM]
1,cyclo(YHACWG[dP]WTICYQK[dA]P) (disulfide 4-11; SMILES CC[C@H](C)[C@@H]1NC(=O)[C@H]([C@@H](C)O)NC(=O)[C@H](Cc2c[nH]c3ccccc23)NC(=O)[C@H]2CCCN2C(=O)CNC(=O)[C@H](Cc2c[nH]c3ccccc23)NC(=O)[C@@H]2CSSC[C@H](NC1=O)C(=O)N[C@@H](Cc1ccc(O)cc1)C(=O)N[C@@H](CCC(N)=O)C(=O)N[C@@H](CCCCN)C(=O)N[C@H](C)C(=O)N1CCC[C@H]1C(=O)N[C@@H](Cc1ccc(O)cc1)C(=O)N[C@@H](Cc1c[nH]cn1)C(=O)N[C@@H](C)C(=O)N2) [cyclo(-Tyr-His-Ala-Cys-Trp-Gly-^DPro-Trp-Thr-Ile-Cys-Tyr-Gln-Lys-^DAla-Pro-)],133
2,cyclo(YHKCWG[dP]WTICYEK[dA]P) (disulfide 4-11; SMILES CC[C@H](C)[C@@H]1NC(=O)[C@H]([C@@H](C)O)NC(=O)[C@H](Cc2c[nH]c3ccccc23)NC(=O)[C@H]2CCCN2C(=O)CNC(=O)[C@H](Cc2c[nH]c3ccccc23)NC(=O)[C@@H]2CSSC[C@H](NC1=O)C(=O)N[C@@H](Cc1ccc(O)cc1)C(=O)N[C@@H](CCC(=O)O)C(=O)N[C@@H](CCCCN)C(=O)N[C@H](C)C(=O)N1CCC[C@H]1C(=O)N[C@@H](Cc1ccc(O)cc1)C(=O)N[C@@H](Cc1c[nH]cn1)C(=O)N[C@@H](CCCCN)C(=O)N2) [cyclo(-Tyr-His-Lys-Cys-Trp-Gly-^DPro-Trp-Thr-Ile-Cys-Tyr-Glu-Lys-^DAla-Pro-)],126
3,cyclo(YHKCHG[dP]WTICYEK[dPro((4S)OH)]P) (disulfide 4-11) [cyclo(-Tyr-His-Lys-Cys-His-Gly-^DPro-Trp-Thr-Ile-Cys-Tyr-Glu-Lys-^DPro((4S)OH)-Pro-)],39
4,cyclo(YHKCHG[dP]WTICYEK[dPro(4S-NH2)]P) (disulfide 4-11) [cyclo(-Tyr-His-Lys-Cys-His-Gly-^DPro-Trp-Thr-Ile-Cys-Tyr-Glu-Lys-^DPro((4S)NH2)-Pro-)],41
5,cyclo(YHKCWG[dP]WTICYEK[dK]P) (disulfide 4-11; SMILES CC[C@H](C)[C@@H]1NC(=O)[C@H]([C@@H](C)O)NC(=O)[C@H](Cc2c[nH]c3ccccc23)NC(=O)[C@H]2CCCN2C(=O)CNC(=O)[C@H](Cc2c[nH]c3ccccc23)NC(=O)[C@@H]2CSSC[C@H](NC1=O)C(=O)N[C@@H](Cc1ccc(O)cc1)C(=O)N[C@@H](CCC(=O)O)C(=O)N[C@@H](CCCCN)C(=O)N[C@H](CCCCN)C(=O)N1CCC[C@H]1C(=O)N[C@@H](Cc1ccc(O)cc1)C(=O)N[C@@H](Cc1c[nH]cn1)C(=O)N[C@@H](CCCCN)C(=O)N2) [cyclo(-Tyr-His-Lys-Cys-Trp-Gly-^DPro-Trp-Thr-Ile-Cys-Tyr-Glu-Lys-^DLys-Pro-)],126
6,cyclo(YHKCHG[dP]WTICYEK[dK]P) (disulfide 4-11; SMILES CC[C@H](C)[C@@H]1NC(=O)[C@H]([C@@H](C)O)NC(=O)[C@H](Cc2c[nH]c3ccccc23)NC(=O)[C@H]2CCCN2C(=O)CNC(=O)[C@H](Cc2c[nH]cn2)NC(=O)[C@@H]2CSSC[C@H](NC1=O)C(=O)N[C@@H](Cc1ccc(O)cc1)C(=O)N[C@@H](CCC(=O)O)C(=O)N[C@@H](CCCCN)C(=O)N[C@H](CCCCN)C(=O)N1CCC[C@H]1C(=O)N[C@@H](Cc1ccc(O)cc1)C(=O)N[C@@H](Cc1c[nH]cn1)C(=O)N[C@@H](CCCCN)C(=O)N2) [cyclo(-Tyr-His-Lys-Cys-His-Gly-^DPro-Trp-Thr-Ile-Cys-Tyr-Glu-Lys-^DLys-Pro-)],385
7,cyclo(YHACHG[dP]WTICYQK[dT]P) (disulfide 4-11; SMILES CC[C@H](C)[C@@H]1NC(=O)[C@H]([C@@H](C)O)NC(=O)[C@H](Cc2c[nH]c3ccccc23)NC(=O)[C@H]2CCCN2C(=O)CNC(=O)[C@H](Cc2c[nH]cn2)NC(=O)[C@@H]2CSSC[C@H](NC1=O)C(=O)N[C@@H](Cc1ccc(O)cc1)C(=O)N[C@@H](CCC(N)=O)C(=O)N[C@@H](CCCCN)C(=O)N[C@H]([C@H](C)O)C(=O)N1CCC[C@H]1C(=O)N[C@@H](Cc1ccc(O)cc1)C(=O)N[C@@H](Cc1c[nH]cn1)C(=O)N[C@@H](C)C(=O)N2) [cyclo(-Tyr-His-Ala-Cys-His-Gly-^DPro-Trp-Thr-Ile-Cys-Tyr-Gln-Lys-^DThr-Pro-)],641
8,cyclo(YHKCHG[dP]WTICYEK[dTic]P) (disulfide 4-11; SMILES CC[C@H](C)[C@@H]1NC(=O)[C@H]([C@@H](C)O)NC(=O)[C@H](Cc2c[nH]c3ccccc23)NC(=O)[C@H]2CCCN2C(=O)CNC(=O)[C@H](Cc2c[nH]cn2)NC(=O)[C@@H]2CSSC[C@H](NC1=O)C(=O)N[C@@H](Cc1ccc(O)cc1)C(=O)N[C@@H](CCC(=O)O)C(=O)N[C@@H](CCCCN)C(=O)N1Cc3ccccc3C[C@@H]1C(=O)N1CCC[C@H]1C(=O)N[C@@H](Cc1ccc(O)cc1)C(=O)N[C@@H](Cc1c[nH]cn1)C(=O)N[C@@H](CCCCN)C(=O)N2) [cyclo(-Tyr-His-Lys-Cys-His-Gly-^DPro-Trp-Thr-Ile-Cys-Tyr-Glu-Lys-^DTic-Pro-)],56

# Second part, the binder after the results:
row,β-Arrestin IC50 [nM],Binder
1,195,cyclo(YHACWG[dP]WTICYQK[dK]P) (disulfide 4-11; SMILES CC[C@H](C)[C@@H]1NC(=O)[C@H]([C@@H](C)O)NC(=O)[C@H](Cc2c[nH]c3ccccc23)NC(=O)[C@H]2CCCN2C(=O)CNC(=O)[C@H](Cc2c[nH]c3ccccc23)NC(=O)[C@@H]2CSSC[C@H](NC1=O)C(=O)N[C@@H](Cc1ccc(O)cc1)C(=O)N[C@@H](CCC(N)=O)C(=O)N[C@@H](CCCCN)C(=O)N[C@H](CCCCN)C(=O)N1CCC[C@H]1C(=O)N[C@@H](Cc1ccc(O)cc1)C(=O)N[C@@H](Cc1c[nH]cn1)C(=O)N[C@@H](C)C(=O)N2) [cyclo(-Tyr-His-Ala-Cys-Trp-Gly-^DPro-Trp-Thr-Ile-Cys-Tyr-Gln-Lys-^DLys-Pro-)]
2,77,cyclo(YHKCHG[dA]WTICYEK[dP]E) (disulfide 4-11; SMILES CC[C@H](C)[C@@H]1NC(=O)[C@H]([C@@H](C)O)NC(=O)[C@H](Cc2c[nH]c3ccccc23)NC(=O)[C@@H](C)NC(=O)CNC(=O)[C@H](Cc2c[nH]cn2)NC(=O)[C@@H]2CSSC[C@H](NC1=O)C(=O)N[C@@H](Cc1ccc(O)cc1)C(=O)N[C@@H](CCC(=O)O)C(=O)N[C@@H](CCCCN)C(=O)N1CCC[C@@H]1C(=O)N[C@@H](CCC(=O)O)C(=O)N[C@@H](Cc1ccc(O)cc1)C(=O)N[C@@H](Cc1c[nH]cn1)C(=O)N[C@@H](CCCCN)C(=O)N2) [cyclo(-Tyr-His-Lys-Cys-His-Gly-^DAla-Trp-Thr-Ile-Cys-Tyr-Glu-Lys-^DPro-Glu-)]
3,65,cyclo(YHKCHG[dP]WTICYEK[dA]P) (disulfide 4-11; SMILES CC[C@H](C)[C@@H]1NC(=O)[C@H]([C@@H](C)O)NC(=O)[C@H](Cc2c[nH]c3ccccc23)NC(=O)[C@H]2CCCN2C(=O)CNC(=O)[C@H](Cc2c[nH]cn2)NC(=O)[C@@H]2CSSC[C@H](NC1=O)C(=O)N[C@@H](Cc1ccc(O)cc1)C(=O)N[C@@H](CCC(=O)O)C(=O)N[C@@H](CCCCN)C(=O)N[C@H](C)C(=O)N1CCC[C@H]1C(=O)N[C@@H](Cc1ccc(O)cc1)C(=O)N[C@@H](Cc1c[nH]cn1)C(=O)N[C@@H](CCCCN)C(=O)N2) [cyclo(-Tyr-His-Lys-Cys-His-Gly-^DPro-Trp-Thr-Ile-Cys-Tyr-Glu-Lys-^DAla-Pro-)]
4,458,cyclo(YHACHG[dA]WTICYQK[dP]P) (disulfide 4-11; SMILES CC[C@H](C)[C@@H]1NC(=O)[C@H]([C@@H](C)O)NC(=O)[C@H](Cc2c[nH]c3ccccc23)NC(=O)[C@@H](C)NC(=O)CNC(=O)[C@H](Cc2c[nH]cn2)NC(=O)[C@@H]2CSSC[C@H](NC1=O)C(=O)N[C@@H](Cc1ccc(O)cc1)C(=O)N[C@@H](CCC(N)=O)C(=O)N[C@@H](CCCCN)C(=O)N1CCC[C@@H]1C(=O)N1CCC[C@H]1C(=O)N[C@@H](Cc1ccc(O)cc1)C(=O)N[C@@H](Cc1c[nH]cn1)C(=O)N[C@@H](C)C(=O)N2) [cyclo(-Tyr-His-Ala-Cys-His-Gly-^DAla-Trp-Thr-Ile-Cys-Tyr-Gln-Lys-^DPro-Pro-)]

# — patent US9957297B2, “Template-fixed peptidomimetics as inhibitors of FPR1” (POLYPHOR AG, priority 2011, dated 2018)
